The Human Domainome abundance scans (Beltran et al. 2025)
± gives the uncertainty stated by the source.

Assay: abundance fitness (aPCA) (normalised: wild type 0, dead -1); higher = more abundant; growth selection in yeast, the domain comes from the species named
Conditions: Homo sapiens

“BAG family molecular chaperone regulator 3 F39W, O95817” and “BAG family molecular chaperone regulator 3 F39Y, O95817” are within error of each other in abundance fitness: -0.42 ± 0.19 for the first, -0.244 ± 0.24 for the second.

First: BAG family molecular chaperone regulator 3 G15C, O95817
Second: BAG family molecular chaperone regulator 3 G15D, O95817
The abundance fitness of the first is lower: 0.649 ± 0.079 for the first, 1.2 ± 0.092 for the second.

Compared with “BAG family molecular chaperone regulator 3 G15E, O95817”, “BAG family molecular chaperone regulator 3 G15F, O95817” is lower in abundance fitness: 1 ± 0.094 for the first, 0.641 ± 0.083 for the second.

Going from “BAG family molecular chaperone regulator 3 G15H, O95817” to “BAG family molecular chaperone regulator 3 G15I, O95817”, the abundance fitness falls from 1.18 ± 0.16 to 0.795 ± 0.18.

First: BAG family molecular chaperone regulator 3 G15K, O95817
Second: BAG family molecular chaperone regulator 3 G15L, O95817
The abundance fitness of the first is higher: 1.15 ± 0.12 for the first, 0.766 ± 0.074 for the second.

First: BAG family molecular chaperone regulator 3 G15M, O95817
Second: BAG family molecular chaperone regulator 3 G15N, O95817
The abundance fitness of the first is lower: 0.142 ± 0.17 for the first, 1.04 ± 0.089 for the second.

“BAG family molecular chaperone regulator 3 G15P, O95817” and “BAG family molecular chaperone regulator 3 G15Q, O95817” are within error of each other in abundance fitness: 0.603 ± 0.15 for the first, 0.828 ± 0.094 for the second.

“BAG family molecular chaperone regulator 3 G15R, O95817” and “BAG family molecular chaperone regulator 3 G15S, O95817” are within error of each other in abundance fitness: 0.737 ± 0.059 for the first, 0.814 ± 0.067 for the second.

“BAG family molecular chaperone regulator 3 G15T, O95817” and “BAG family molecular chaperone regulator 3 G15V, O95817” are within error of each other in abundance fitness: 0.856 ± 0.082 for the first, 0.89 ± 0.078 for the second.

Compared with “BAG family molecular chaperone regulator 3 G15W, O95817”, “BAG family molecular chaperone regulator 3 G15Y, O95817” is higher in abundance fitness: -0.481 ± 0.19 for the first, 0.874 ± 0.075 for the second.

“BAG family molecular chaperone regulator 3 G17A, O95817” and “BAG family molecular chaperone regulator 3 G17C, O95817” are within error of each other in abundance fitness: 0.55 ± 0.09 for the first, 0.731 ± 0.11 for the second.

“BAG family molecular chaperone regulator 3 G17D, O95817” and “BAG family molecular chaperone regulator 3 G17E, O95817” are within error of each other in abundance fitness: 0.825 ± 0.07 for the first, 0.915 ± 0.077 for the second.

Compared with “BAG family molecular chaperone regulator 3 G17F, O95817”, “BAG family molecular chaperone regulator 3 G17H, O95817” is higher in abundance fitness: -0.177 ± 0.23 for the first, 1.03 ± 0.1 for the second.

“BAG family molecular chaperone regulator 3 G17I, O95817” and “BAG family molecular chaperone regulator 3 G17K, O95817” are within error of each other in abundance fitness: 0.73 ± 0.092 for the first, 0.564 ± 0.093 for the second.

“BAG family molecular chaperone regulator 3 G17L, O95817” and “BAG family molecular chaperone regulator 3 G17M, O95817” are within error of each other in abundance fitness: 0.282 ± 0.087 for the first, 0.25 ± 0.21 for the second.

“BAG family molecular chaperone regulator 3 G17N, O95817” and “BAG family molecular chaperone regulator 3 G17P, O95817” are within error of each other in abundance fitness: 0.913 ± 0.13 for the first, 1.15 ± 0.12 for the second.

Going from “BAG family molecular chaperone regulator 3 G17Q, O95817” to “BAG family molecular chaperone regulator 3 G17R, O95817”, the abundance fitness falls from 0.968 ± 0.098 to 0.791 ± 0.06.

“BAG family molecular chaperone regulator 3 G17S, O95817” and “BAG family molecular chaperone regulator 3 G17T, O95817” are within error of each other in abundance fitness: 0.82 ± 0.073 for the first, 0.943 ± 0.083 for the second.

“BAG family molecular chaperone regulator 3 G17W, O95817” and “BAG family molecular chaperone regulator 3 G17Y, O95817” are within error of each other in abundance fitness: 0.329 ± 0.083 for the first, 0.213 ± 0.22 for the second.

“BAG family molecular chaperone regulator 3 G25A, O95817” and “BAG family molecular chaperone regulator 3 G25C, O95817” are within error of each other in abundance fitness: -0.712 ± 0.17 for the first, -0.74 ± 0.17 for the second.

Going from “BAG family molecular chaperone regulator 3 G25D, O95817” to “BAG family molecular chaperone regulator 3 G25H, O95817”, the abundance fitness rises from -0.548 ± 0.23 to -0.125 ± 0.065.

“BAG family molecular chaperone regulator 3 G25K, O95817” and “BAG family molecular chaperone regulator 3 G25L, O95817” are within error of each other in abundance fitness: -0.492 ± 0.23 for the first, -0.784 ± 0.19 for the second.

First: BAG family molecular chaperone regulator 3 G25M, O95817
Second: BAG family molecular chaperone regulator 3 G25N, O95817
The abundance fitness of the first is lower: -0.652 ± 0.075 for the first, 0.081 ± 0.21 for the second.

First: BAG family molecular chaperone regulator 3 G25Q, O95817
Second: BAG family molecular chaperone regulator 3 G25R, O95817
The abundance fitness of the first is lower: -1.03 ± 0.27 for the first, -0.432 ± 0.14 for the second.

“BAG family molecular chaperone regulator 3 G25S, O95817” and “BAG family molecular chaperone regulator 3 G25T, O95817” are within error of each other in abundance fitness: -0.726 ± 0.19 for the first, -0.667 ± 0.22 for the second.

“BAG family molecular chaperone regulator 3 G25V, O95817” and “BAG family molecular chaperone regulator 3 G25W, O95817” are within error of each other in abundance fitness: -1.23 ± 0.33 for the first, -0.875 ± 0.34 for the second.

“BAG family molecular chaperone regulator 3 G35A, O95817” and “BAG family molecular chaperone regulator 3 G35C, O95817” are within error of each other in abundance fitness: 0.335 ± 0.063 for the first, 0.146 ± 0.17 for the second.

First: BAG family molecular chaperone regulator 3 G35D, O95817
Second: BAG family molecular chaperone regulator 3 G35F, O95817
The abundance fitness of the first is higher: 0.202 ± 0.13 for the first, -0.552 ± 0.11 for the second.

“BAG family molecular chaperone regulator 3 G35H, O95817” and “BAG family molecular chaperone regulator 3 G35K, O95817” are within error of each other in abundance fitness: 0.552 ± 0.28 for the first, 0.766 ± 0.078 for the second.

“BAG family molecular chaperone regulator 3 G35L, O95817” and “BAG family molecular chaperone regulator 3 G35M, O95817” are within error of each other in abundance fitness: -0.184 ± 0.14 for the first, -0.158 ± 0.16 for the second.

First: BAG family molecular chaperone regulator 3 G35N, O95817
Second: BAG family molecular chaperone regulator 3 G35P, O95817
The abundance fitness of the first is higher: 1.26 ± 0.22 for the first, -0.237 ± 0.21 for the second.

“BAG family molecular chaperone regulator 3 G35Q, O95817” and “BAG family molecular chaperone regulator 3 G35R, O95817” are within error of each other in abundance fitness: 0.41 ± 0.11 for the first, 0.366 ± 0.078 for the second.

Going from “BAG family molecular chaperone regulator 3 G35S, O95817” to “BAG family molecular chaperone regulator 3 G35T, O95817”, the abundance fitness falls from 0.442 ± 0.064 to -0.006 ± 0.11.

“BAG family molecular chaperone regulator 3 G35V, O95817” and “BAG family molecular chaperone regulator 3 G35W, O95817” are within error of each other in abundance fitness: -0.589 ± 0.16 for the first, -0.726 ± 0.19 for the second.

“BAG family molecular chaperone regulator 3 G35Y, O95817” and “BAG family molecular chaperone regulator 3 G58A, O95817” are within error of each other in abundance fitness: -0.304 ± 0.24 for the first, -0.45 ± 0.15 for the second.

“BAG family molecular chaperone regulator 3 G58C, O95817” and “BAG family molecular chaperone regulator 3 G58D, O95817” are within error of each other in abundance fitness: -0.17 ± 0.25 for the first, 0.238 ± 0.18 for the second.

“BAG family molecular chaperone regulator 3 G58E, O95817” and “BAG family molecular chaperone regulator 3 G58F, O95817” are within error of each other in abundance fitness: -0.045 ± 0.18 for the first, -0.382 ± 0.37 for the second.

Going from “BAG family molecular chaperone regulator 3 G58H, O95817” to “BAG family molecular chaperone regulator 3 G58I, O95817”, the abundance fitness rises from -0.263 ± 0.1 to 0.138 ± 0.28.

First: BAG family molecular chaperone regulator 3 G58L, O95817
Second: BAG family molecular chaperone regulator 3 G58M, O95817
The abundance fitness of the first is lower: -0.211 ± 0.2 for the first, 0.512 ± 0.17 for the second.

“BAG family molecular chaperone regulator 3 G58N, O95817” and “BAG family molecular chaperone regulator 3 G58P, O95817” are within error of each other in abundance fitness: 0.51 ± 0.35 for the first, -0.032 ± 0.29 for the second.

Compared with “BAG family molecular chaperone regulator 3 G58Q, O95817”, “BAG family molecular chaperone regulator 3 G58R, O95817” is lower in abundance fitness: 0.85 ± 0.19 for the first, -0.214 ± 0.08 for the second.

“BAG family molecular chaperone regulator 3 G58S, O95817” and “BAG family molecular chaperone regulator 3 G58V, O95817” are within error of each other in abundance fitness: -0.193 ± 0.11 for the first, -0.129 ± 0.064 for the second.

“BAG family molecular chaperone regulator 3 G58W, O95817” and “BAG family molecular chaperone regulator 3 H42A, O95817” are within error of each other in abundance fitness: -0.682 ± 0.29 for the first, -0.857 ± 0.15 for the second.

“BAG family molecular chaperone regulator 3 H42C, O95817” and “BAG family molecular chaperone regulator 3 H42E, O95817” are within error of each other in abundance fitness: -0.457 ± 0.33 for the first, -0.738 ± 0.33 for the second.

“BAG family molecular chaperone regulator 3 H42G, O95817” and “BAG family molecular chaperone regulator 3 H42I, O95817” are within error of each other in abundance fitness: -0.65 ± 0.09 for the first, -0.625 ± 0.29 for the second.

For “BAG family molecular chaperone regulator 3 H42K, O95817”, the abundance fitness was -0.942 ± 0.42.
